Earlier results on one molecule are cited in US9265777B2, “Antiparasitic agent for fish and method of controlling proliferation of fish parasites” (NIPPON SUISAN KAISHA, LTD., priority 2009, dated 2016).

This series has as its system White spot disease. Particulars: 40 mg per 1 kg of fish body weight orally per day, 28-day experimental period.

B1: lactoferrin: marketed as an additive for fisheries (protein, UniProt P24627 20-708, looked up)
Lactotransferrin: APRKNVRWCTISQPEWFKCRRWQWRMKKLGAPSITCVRRAFALECIRAIAEKKADAVTLDGGMVFEAGRDPYKLRPVAAEIYGTKESPQTHYYAVAVVKKGSNFQLDQLQGRKSCHTGLGRSAGWIIPMGILRPYLSWTESLEPLQGAVAKFFSASCVPCIDRQAYPNLCQLCKGEGENQCACSSREPYFGYSGAFKCLQDGAGDVAFVKETTVFENLPEKADRDQYELLCLNNSRAPVDAFKECHLAQVPSHAVVARSVDGKEDLIWKLLSKAQEKFGKNKSRSFQLFGSPPGQRDLLFKDSALGFLRIPSKVDSALYLGSRYLTTLKNLRETAEEVKARYTRVVWCAVGPEEQKKCQQWSQQSGQNVTCATASTTDDCIVLVLKGEADALNLDGGYIYTAGKCGLVPVLAENRKSSKHSSLDCVLRPTEGYLAVAVVKKANEGLTWNSLKDKKSCHTAVDRTAGWNIPMGLIVNQTGSCAFDEFFSQSCAPGADPKSRLCALCAGDDQGLDKCVPNSKEKYYGYTGAFRCLAEDVGDVAFVKNDTVWENTNGESTADWAKNLNREDFRLLCLDGTRKPVTEAQSCHLAVAPNHAVVSRSDRAAHVKQVLLHQQALFGKNGKNCPDKFCLFKSETKNLLFNDNTECLAKLGGRPTYEEYLGTEYVTAIANLKKCSTSPLLEACAFLTR
B1: the “infection during experimental period” value is “no infection was observed”.
